Series [1] concerns the molecule itself. The series is described as follows: AUC; sedimentation velocity, SEC buffer, 20 °C, 42 000 rpm; P-PI4KB alone (20 µM) and with Rab11; stoichiometries independent of Rab11 nucleotide state.
For a further series, the target named is T1, pseudo-wt PI4KB (human, UniProt Q9UBF8 1-816, internal deletion of a disordered loop (residues 423-522)).
T1 construct: phosphatidylinositol 4-kinase IIIβ (PI4KB) with intact N-terminus, containing only the internal deletion (residues 423-522)
T1 sequence (Q9UBF8 other isoform, or with tags, fused parts or gaps with the stated changes): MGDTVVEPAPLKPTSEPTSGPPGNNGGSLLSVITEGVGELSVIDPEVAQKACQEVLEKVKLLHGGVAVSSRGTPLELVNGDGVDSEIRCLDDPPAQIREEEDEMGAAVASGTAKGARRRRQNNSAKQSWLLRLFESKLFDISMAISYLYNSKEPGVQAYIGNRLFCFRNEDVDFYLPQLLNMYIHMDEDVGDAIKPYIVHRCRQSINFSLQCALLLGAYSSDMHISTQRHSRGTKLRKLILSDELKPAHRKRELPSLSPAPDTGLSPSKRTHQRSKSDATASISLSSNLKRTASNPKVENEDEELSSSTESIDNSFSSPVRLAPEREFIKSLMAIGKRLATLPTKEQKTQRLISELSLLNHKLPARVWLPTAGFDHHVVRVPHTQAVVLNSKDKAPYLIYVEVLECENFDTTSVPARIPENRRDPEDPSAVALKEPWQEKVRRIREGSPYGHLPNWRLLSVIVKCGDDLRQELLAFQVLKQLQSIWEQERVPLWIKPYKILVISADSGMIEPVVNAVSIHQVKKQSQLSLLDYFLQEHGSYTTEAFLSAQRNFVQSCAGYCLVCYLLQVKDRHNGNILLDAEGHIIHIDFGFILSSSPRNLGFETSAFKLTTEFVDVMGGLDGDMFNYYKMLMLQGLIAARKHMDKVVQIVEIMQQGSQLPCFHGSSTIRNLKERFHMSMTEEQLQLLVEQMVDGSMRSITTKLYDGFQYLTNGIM
The series is described as follows: SAXS; ACBD3 and pseudo-wt PI4KB mixed 1:1, dialyzed against 20 mM Tris pH 8, 200 mM NaCl, 2 mM TCEP, 1% glycerol; 3.0 and 4.5 mg/ml. Conditions: both partners purified.

The target of series [2] is T2, pseudo-wt PI4KB labeled with Atto488 (human, UniProt Q9UBF8 1-816, internal deletion of a disordered loop (residues 423-522), Atto488 (maleimide labelling)).
T2 construct: phosphatidylinositol 4-kinase IIIβ (PI4KB) with intact N-terminus, containing only the internal deletion (residues 423-522); also called Atto488 labeled PI4KB; wild type PI4KB
T2 sequence (Q9UBF8 other isoform, or with tags, fused parts or gaps with the stated changes): as above
Nature of the series: GUV recruitment (confocal microscopy); ACBD3 tethered to GUVs with DGS-NTA(Ni); Atto488-PI4KB and mCherry-Rab11 in solution, each approximately 50 nM. Conditions: both partners purified.

B1: phosphorylated PI4KB (residues 128-799, internal deletion 423-522, T292R, phosphorylated at S294 by PKA) (enzyme, human, UniProt Q9UBF8 128-799, looked up)
chain: SWLLRLFESKLFDISMAISYLYNSKEPGVQAYIGNRLFCFRNEDVDFYLPQLLNMYIHMDEDVGDAIKPYIVHRCRQSINFSLQCALLLGAYSSDMHISTQRHSRGTKLRKLILSDELKPAHRKRELPSLSPAPDTGLSPSKRTHQRSKSDATASISLSSNLKRRASNPKVENEDEELSSSTESIDNSFSSPVRLAPEREFIKSLMAIGKRLATLPTKEQKTQRLISELSLLNHKLPARVWLPTAGFDHHVVRVPHTQAVVLNSKDKAPYLIYVEVLECENFDTTSVPARIPENRRDPEDPSAVALKEPWQEKVRRIREGSPYGHLPNWRLLSVIVKCGDDLRQELLAFQVLKQLQSIWEQERVPLWIKPYKILVISADSGMIEPVVNAVSIHQVKKQSQLSLLDYFLQEHGSYTTEAFLSAQRNFVQSCAGYCLVCYLLQVKDRHNGNILLDAEGHIIHIDFGFILSSSPRNLGFETSAFKLTTEFVDVMGGLDGDMFNYYKMLMLQGLIAARKHMDKVVQIVEIMQQGSQLPCFHGSSTIRNLKERFHMSMTEEQLQLLVEQMVDGSMRS
modifications: phosphoserine at 294 (in vitro by protein kinase A)
notes: phosphatidylinositol 4-kinase IIIβ (PI4KB), residues 128-799 with internal deletion of a disordered loop (residues 423-522) and T292R; also called P-PI4KB; phosphatidylinositol 4-kinase IIIβ; source: phosphorylated in vitro by PKA; Mono Q, SEC
Broadly, the stoichiometry N is a count of units in the complex or per binding partner. For the molecule B1, the “stoichiometry N” value in series [1] was determined as 2.

B2: ACBD3 (Acyl-CoA-binding domain-containing protein), tag cleaved (natural protein, UniProt Q9H3P7 1-528, looked up)
chain: MAAVLNAERLEVSVDGLTLSPDPEERPGAEGAPLLPPPLPPPSPPGSGRGPGASGEQPEPGEAAAGGAAEEARRLEQRWGFGLEELYGLALRFFKEKDGKAFHPTYEEKLKLVALHKQVLMGPYNPDTCPEVGFFDVLGNDRRREWAALGNMSKEDAMVEFVKLLNRCCHLFSTYVASHKIEKEEQEKKRKEEEERRRREEEERERLQKEEEKRRREEEERLRREEEERRRIEEERLRLEQQKQQIMAALNSQTAVQFQQYAAQQYPGNYEQQQILIRQLQEQHYQQYMQQLYQVQLAQQQAALQKQQEVVVAGSSLPTSSKVNATVPSNMMSVNGQAKTHTDSSEKELEPEAAEEALENGPKESLPVIAAPSMWTRPQIKDFKEKIQQDADSVITVGRGEVVTVRVPTHEEGSYLFWEFATDNYDIGFGVYFEWTDSPNTAVSVHVSESSDDDEEEEENIGCEEKAKKNANKPLLDEIVPVYRRDCHEEVYAGSHQYPGRGVYLLKFDNSYSLWRSKSVYYRVYYTR
notes: ACBD3 with ACBD, CAR, Q and GOLD domains; no limits of the construct are printed; not shown: His6-GB1, N-terminal, cleaved
For the molecule B2, the binding result with pseudo-wt PI4KB is given as “binds”.

B3: ACBD3 with N-terminal 6xHis-GB1 tag (for GUV reconstitution) (natural protein, UniProt Q9H3P7 1-528, looked up)
chain: MAAVLNAERLEVSVDGLTLSPDPEERPGAEGAPLLPPPLPPPSPPGSGRGPGASGEQPEPGEAAAGGAAEEARRLEQRWGFGLEELYGLALRFFKEKDGKAFHPTYEEKLKLVALHKQVLMGPYNPDTCPEVGFFDVLGNDRRREWAALGNMSKEDAMVEFVKLLNRCCHLFSTYVASHKIEKEEQEKKRKEEEERRRREEEERERLQKEEEKRRREEEERLRREEEERRRIEEERLRLEQQKQQIMAALNSQTAVQFQQYAAQQYPGNYEQQQILIRQLQEQHYQQYMQQLYQVQLAQQQAALQKQQEVVVAGSSLPTSSKVNATVPSNMMSVNGQAKTHTDSSEKELEPEAAEEALENGPKESLPVIAAPSMWTRPQIKDFKEKIQQDADSVITVGRGEVVTVRVPTHEEGSYLFWEFATDNYDIGFGVYFEWTDSPNTAVSVHVSESSDDDEEEEENIGCEEKAKKNANKPLLDEIVPVYRRDCHEEVYAGSHQYPGRGVYLLKFDNSYSLWRSKSVYYRVYYTR
notes: ACBD3 with ACBD, CAR, Q and GOLD domains; Tethered to GUVs that contain DGS-NTA(Ni); also called membrane tethered ACBD3; not shown: His6-GB1, N-terminal, kept
B3: the binding result in series [2] is listed as “binds”.
